Measurements: publication PMC4529816 (Molecular cancer therapeutics, 2015)

Target: T1, GAL4^DBD-SIN3B (UniProt O75182 1-1162)
T1 sequence (looked up): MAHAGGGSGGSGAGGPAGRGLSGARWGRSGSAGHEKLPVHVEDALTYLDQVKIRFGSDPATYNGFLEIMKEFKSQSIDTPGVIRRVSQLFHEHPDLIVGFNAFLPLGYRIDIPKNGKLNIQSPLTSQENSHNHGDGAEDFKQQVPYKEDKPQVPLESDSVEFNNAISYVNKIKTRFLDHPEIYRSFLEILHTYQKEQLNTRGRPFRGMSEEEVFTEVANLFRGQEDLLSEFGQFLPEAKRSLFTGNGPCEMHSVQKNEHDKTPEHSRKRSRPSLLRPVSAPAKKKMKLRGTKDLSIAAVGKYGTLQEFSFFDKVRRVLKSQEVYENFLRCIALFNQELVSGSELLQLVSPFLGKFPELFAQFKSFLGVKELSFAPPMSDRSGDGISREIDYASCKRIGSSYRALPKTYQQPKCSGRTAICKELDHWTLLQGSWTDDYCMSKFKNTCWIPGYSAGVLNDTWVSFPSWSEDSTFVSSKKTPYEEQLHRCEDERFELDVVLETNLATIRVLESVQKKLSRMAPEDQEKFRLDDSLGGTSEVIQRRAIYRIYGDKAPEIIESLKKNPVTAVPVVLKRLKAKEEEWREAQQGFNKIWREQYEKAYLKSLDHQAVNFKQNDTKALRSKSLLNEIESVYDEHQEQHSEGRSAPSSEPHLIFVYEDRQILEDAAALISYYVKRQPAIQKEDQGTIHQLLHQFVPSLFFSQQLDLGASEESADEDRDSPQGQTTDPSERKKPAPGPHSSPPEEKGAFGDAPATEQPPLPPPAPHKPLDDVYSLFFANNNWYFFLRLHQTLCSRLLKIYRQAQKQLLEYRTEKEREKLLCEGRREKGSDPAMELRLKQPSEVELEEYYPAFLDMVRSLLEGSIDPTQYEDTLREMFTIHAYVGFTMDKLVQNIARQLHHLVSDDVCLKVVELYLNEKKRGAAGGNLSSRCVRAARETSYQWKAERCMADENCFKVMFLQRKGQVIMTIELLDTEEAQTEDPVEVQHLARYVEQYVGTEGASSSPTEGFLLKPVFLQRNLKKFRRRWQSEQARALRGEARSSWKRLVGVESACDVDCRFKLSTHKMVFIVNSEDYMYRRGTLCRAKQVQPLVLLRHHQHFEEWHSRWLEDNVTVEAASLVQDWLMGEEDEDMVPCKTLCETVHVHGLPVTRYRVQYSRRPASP
Assay: two-hybrid

B1: VP16^AD-MAD (natural protein, UniProt Q05195 1-221, looked up)
chain: MAAAVRMNIQMLLEAADYLERREREAEHGYASMLPYNNKDRDALKRRNKSKKNNSSSRSTHNEMEKNRRAHLRLCLEKLKGLVPLGPESSRHTTLSLLTKAKLHIKKLEDCDRKAVHQIDQLQREQRHLKRQLEKLGIERIRMDSIGSTVSSERSDSDREEIDVDVESTDYLTGDLDWSSSSVSDSDERGSMQSLGSDEGYSSTSIKRIKLQDSHKACLGL
fold decrease in luciferase activity against the empty vectors: 3.7 fold
